2 molecules from paper PMC8363759 (Cell reports, 2021) can be followed below.

The target in one test is T1, h5MP1 (WT) (human, UniProt Q9Y6E2 1-419).
T1 sequence (looked up): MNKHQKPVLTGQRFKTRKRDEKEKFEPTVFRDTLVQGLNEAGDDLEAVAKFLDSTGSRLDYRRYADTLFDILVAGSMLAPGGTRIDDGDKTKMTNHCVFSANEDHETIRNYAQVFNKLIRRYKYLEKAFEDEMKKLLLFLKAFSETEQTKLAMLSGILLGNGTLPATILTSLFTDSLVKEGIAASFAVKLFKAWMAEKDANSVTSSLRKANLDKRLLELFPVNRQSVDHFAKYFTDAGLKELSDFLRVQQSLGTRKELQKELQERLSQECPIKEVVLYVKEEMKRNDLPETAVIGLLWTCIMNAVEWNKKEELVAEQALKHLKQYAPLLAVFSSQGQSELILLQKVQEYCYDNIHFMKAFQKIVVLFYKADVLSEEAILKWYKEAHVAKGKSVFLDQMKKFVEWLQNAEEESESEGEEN
The test is described as follows: ITC.

In the next test the target is T2, h5MP1-BN1 (human, UniProt Q9Y6E2 1-419, K380Q | K383Q | H386Q | K389Q | K391Q).
T2 sequence (looked up): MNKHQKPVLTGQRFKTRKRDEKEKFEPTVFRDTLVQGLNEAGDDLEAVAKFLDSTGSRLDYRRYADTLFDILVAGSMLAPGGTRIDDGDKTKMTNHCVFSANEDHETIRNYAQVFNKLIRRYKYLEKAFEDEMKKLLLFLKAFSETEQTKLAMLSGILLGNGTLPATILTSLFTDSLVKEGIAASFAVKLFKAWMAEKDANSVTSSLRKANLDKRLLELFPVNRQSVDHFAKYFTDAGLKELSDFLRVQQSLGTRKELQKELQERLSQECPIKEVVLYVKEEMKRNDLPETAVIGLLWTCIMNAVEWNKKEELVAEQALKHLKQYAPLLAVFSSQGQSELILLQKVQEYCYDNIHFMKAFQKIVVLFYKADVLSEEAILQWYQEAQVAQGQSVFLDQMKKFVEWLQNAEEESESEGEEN
The test is described as follows: ITC.

The next test deals with T3, GST-h5MP1 (human, UniProt Q9Y6E2 1-419).
T3 sequence (looked up): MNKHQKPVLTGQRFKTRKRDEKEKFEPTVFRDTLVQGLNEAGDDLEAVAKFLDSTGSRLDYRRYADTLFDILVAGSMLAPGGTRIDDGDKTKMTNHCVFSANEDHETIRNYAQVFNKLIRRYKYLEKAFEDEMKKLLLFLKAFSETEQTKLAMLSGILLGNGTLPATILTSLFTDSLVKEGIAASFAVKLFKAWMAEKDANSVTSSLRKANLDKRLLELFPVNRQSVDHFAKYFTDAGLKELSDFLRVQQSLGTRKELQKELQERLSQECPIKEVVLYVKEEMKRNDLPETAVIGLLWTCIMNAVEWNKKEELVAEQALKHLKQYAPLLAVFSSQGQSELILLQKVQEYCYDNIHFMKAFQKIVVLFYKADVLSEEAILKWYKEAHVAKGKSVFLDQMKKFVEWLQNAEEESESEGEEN
Briefly: pull-down.

B1: heIF2β_(53-136) (domain or fragment, human, UniProt P20042 53-136, looked up)
chain: DLEADEEDTRKKDASDDLDDLNFFNQKKKKKKTKKIFDIDEAEEGVKDLKIESDVQEPTEPEDDLDIMLGNKKKKKKNVKFPDE
On to B1, for which the binding result with h5MP1 (WT) and with h5MP1-BN1 was “binds” throughout.

B2: GB-heIF3c_(20-102) (domain or fragment, human, UniProt Q99613 20-102, looked up)
chain: EELVTKPVGGNYGKQPLLLSEDEEDTKRVVRSAKDKRFEELTNLIRTIRNAMKIRDVTKCLEEFELLGKAYGKAKSIVDKEGV
For the molecule B2, in the test with GST-h5MP1, the binding result was “binds”.
